We go through four molecules from patent US20230149507A1, “TREATMENT OF ALT CANCERS” (INSTITUTO DE MEDICINA MOLECULAR JOÃO LOBO ANTUNES, priority 2019, published 2023).

One series deals with T1, FANCM-BTR complex (Homo sapiens, UniProt Q96E14+Q9H9A7).
T1 construct: expressed in transfected cells; host or cells: HEK-293
T1 sequence (Q9H9A7 1-625): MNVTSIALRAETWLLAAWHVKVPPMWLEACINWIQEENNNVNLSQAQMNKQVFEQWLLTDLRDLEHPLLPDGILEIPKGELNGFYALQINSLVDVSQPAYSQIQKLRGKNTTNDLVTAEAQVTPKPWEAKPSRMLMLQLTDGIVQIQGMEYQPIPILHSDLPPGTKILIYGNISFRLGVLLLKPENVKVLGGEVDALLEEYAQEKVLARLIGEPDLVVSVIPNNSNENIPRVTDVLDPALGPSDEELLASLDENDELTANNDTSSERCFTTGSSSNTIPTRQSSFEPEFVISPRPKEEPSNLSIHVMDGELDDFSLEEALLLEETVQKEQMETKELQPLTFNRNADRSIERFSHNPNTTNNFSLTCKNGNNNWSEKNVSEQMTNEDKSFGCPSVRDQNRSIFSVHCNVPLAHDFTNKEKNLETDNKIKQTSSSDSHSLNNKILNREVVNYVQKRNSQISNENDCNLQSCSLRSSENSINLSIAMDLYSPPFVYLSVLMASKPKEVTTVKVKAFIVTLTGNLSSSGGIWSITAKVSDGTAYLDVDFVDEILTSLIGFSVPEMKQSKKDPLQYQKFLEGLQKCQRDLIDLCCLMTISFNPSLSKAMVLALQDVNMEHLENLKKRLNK
T1 sequence (Q96E14 2-147 limits assumed): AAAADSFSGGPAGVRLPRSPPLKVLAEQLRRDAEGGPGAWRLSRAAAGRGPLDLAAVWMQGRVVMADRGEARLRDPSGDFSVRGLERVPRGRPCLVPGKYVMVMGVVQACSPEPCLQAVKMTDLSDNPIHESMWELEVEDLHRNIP
T1 sequence (Q13472 1-1001 partner): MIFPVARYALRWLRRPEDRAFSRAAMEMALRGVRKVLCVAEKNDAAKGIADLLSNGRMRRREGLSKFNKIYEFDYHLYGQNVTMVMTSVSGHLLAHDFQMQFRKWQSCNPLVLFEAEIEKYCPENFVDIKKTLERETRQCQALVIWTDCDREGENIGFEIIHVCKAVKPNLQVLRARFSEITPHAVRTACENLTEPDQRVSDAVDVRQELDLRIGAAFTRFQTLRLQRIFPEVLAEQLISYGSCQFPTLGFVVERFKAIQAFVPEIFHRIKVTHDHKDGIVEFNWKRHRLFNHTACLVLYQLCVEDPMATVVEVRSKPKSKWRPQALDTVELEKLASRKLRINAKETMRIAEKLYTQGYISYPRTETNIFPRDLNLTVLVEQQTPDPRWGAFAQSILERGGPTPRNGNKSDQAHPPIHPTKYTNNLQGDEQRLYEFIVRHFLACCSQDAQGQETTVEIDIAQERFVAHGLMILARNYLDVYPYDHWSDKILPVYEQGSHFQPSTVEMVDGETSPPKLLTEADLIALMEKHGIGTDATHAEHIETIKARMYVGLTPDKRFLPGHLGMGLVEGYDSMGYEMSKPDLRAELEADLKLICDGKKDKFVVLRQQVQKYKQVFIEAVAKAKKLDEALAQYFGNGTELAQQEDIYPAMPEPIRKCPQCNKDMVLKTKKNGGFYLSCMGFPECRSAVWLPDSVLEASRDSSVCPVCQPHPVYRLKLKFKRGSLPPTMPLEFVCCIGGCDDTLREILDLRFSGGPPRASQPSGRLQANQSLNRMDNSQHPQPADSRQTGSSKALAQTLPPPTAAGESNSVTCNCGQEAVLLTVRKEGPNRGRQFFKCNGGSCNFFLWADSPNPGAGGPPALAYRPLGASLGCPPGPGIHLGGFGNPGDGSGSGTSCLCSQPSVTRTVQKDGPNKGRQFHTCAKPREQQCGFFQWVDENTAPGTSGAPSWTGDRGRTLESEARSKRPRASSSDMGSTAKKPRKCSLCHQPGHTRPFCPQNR
The series can be described thus: Flag-FANCM immunoprecipitation of the FANCM-BTR complex with MM2 peptides added to cellular lysates. The series is classed as binding. Particulars: peptide 1-50 μM, lysates of HEK-293 cells expressing Flag-FANCM. The source says: FIG. 10. Characterization of the MM2-ER fusion protein. (a) Schematic showing competitive inhibition of FANCM-BTR complex formation by the MM2 peptide. […] (c) Representative mitotic spreads showing sister-chromatid exchanges (SCEs) in U-2 OS cells expressing MM2-ER or FF>AA-ER mutant fusion proteins in the presence or absence of 40HT (left panel). Quantitation of SCEs (right panel). (d) Representative mitotic spreads showing sister-chromatid exchanges (SCEs) in HeLa cells expressing MM2-ER or FF>AA-ER mutant fusion proteins in the presence or absence of 40HT (left panel). Quantitation of SCEs (right panel). SCEs are indicated by black arrows. For c and d, scatterplot bars represent the mean±SEM number of SCEs from 15-30 mitotic spreads, *p<0.05, **p<0.005, Mann-Whitney test. NB: The frequency of double labelled mitoses in MM2-ER+4OHT samples was approximately 10% of that in the controls, likely due to significant cell cycle delays introduced by activation of the MM2-inhibitor. As thus, SCE levels are likely underestimated in this experiment.
For co-IP experiments involved the ER-inducible system, cells were lysed in IP buffer (20 mM Tris-HCl pH 7.5, 100 mM NaCl, 10% (v/v) glycerol, 0.5 mM EDTA, 1 mM DTT) supplemented with 1× mammalian protease inhibitor cocktail (Sigma Aldrich) and 50 U/ml Benzonase (Novagen) for 2 h at 4° C., with or without MM2 peptide variants (Mimotopes). Following lysis, NaCl concentration was increased to 250 mM, then the lysate cleared at 16,000×g for 15 mins. Supernatant was then mixed with 1 μg of α-FANCM (Abcam) or α-ER (Santa Cruz Biotechnology) and 20 μl protein G sepharose (GE Healthcare), or using α-Flag M2 agarose (Sigma Aldrich). Following 3 h of mixing at 4° C., beads were washed 4× with IP buffer, and 1× with 50 mM NH4(CO3)2, 0.5 mM EDTA, then eluted with 500 mM NH4OH (pH 11.0), 0.5 mM EDTA. Samples were then lyophilized and resuspended in 1×LDS loading buffer (Life Technologies) prior to immunoblotting.

The subject of another series is U-2 OS ALT cells. The series is described as follows: Metaphase-TIFs after FANCM knockdown with siRNA. The format is cell-based, human. As to conditions: compared to the scrambled control; siRNA 30 nM, 72 h. The text has this:
(a) Representative images of telomere (green) and γ-H2AX (red) colocalizations on metaphase spreads (meta-TIFs) in U-2 OS cells with or without FANCM depletion (left panel). Meta-TIFs are indicated by white arrows. Scale bars are 5 μm. Quantitation of TIFs (right panel). Scatterplot bars represent the mean±SEM. Out of 3 experiments, n≥81 metaphases scored per treatment, **p<0.005, Mann-Whitney test. (b) Native and denatured TRF analysis of U-2 OS cells with or without FANCM depletion. Colored arrows correspond to telomeric DNA species depicted in panel c. (c) Schematic of migration patterns for indicated telomeric species separated by two-dimensional gel electrophoresis (top panel). Two-dimensional TRF analysis of U-2 OS cells with or without FANCM depletion, hybridized under native and denatured conditions to detect the telomeric C-strand and G-strand (left and right panels). Colored arrows correspond to telomeric DNA species depicted in schematic. (d) Representative dot blot and quantitation of C-circle assays of U-2 OS cells with or without FANCM depletion. C-circle levels were normalized to the mean of scrambled control. Error bars represent the mean±SEM from n=3 experiments, *p<0.05, **p<0.005, Student's t-test. […] Out of 3 experiments, n≥150 cells scored per treatment, *p<0.05, **p<0.005, Mann-Whitney test. […]

In a further series the test system is HeLa cells. The series can be described thus: FACS cell cycle analysis of FANCM-depleted HeLa cells with added agents. The series is classed as cell-based, human. As to conditions: HeLa cells depleted for FANCM; 20 μM BIBR 1532 for 7 days.

Method for HeLa cells: When indicated, cells were incubated with 1 μM camptothecin (Sigma-Aldrich) for 3 hours, 0.2 mM hydroxyurea (Sigma-Aldrich) for 16 h, 20 μM BIBR 1532 (Merck Millipore) for 7 days, and 10 μM RO-3306 (Selleckchem) for 18 h. […] For fluorescence-activated cell sorting, cells were trypsinized and pelleted by centrifugation at 500 g at 4° C. for 5 min. Cell pellets were either left untreated for viability assays or fixed in 70% ethanol at −20° C. for 30 min and treated with 25 μg/ml RNaseA (Sigma-Aldrich) in 1×PBS at 37° C. for 20 min. Cells were then washed in 1×PBS and stained with 20 μg/ml propidium iodide (Sigma-Aldrich) in 1×PBS at 4° C. for 10 min. Flow cytometry was performed on a BD FACSCalibur or a BD Accuri C6 (BD Biosciences). Data were analyzed using FlowJo software.

For the molecule “MM2 peptide: chemically synthesized peptide (SEQ ID NO: 29) corresponding to the highly conserved 28 amino acids of the MM2 domain (EDIFDCSRDLFSVTFDLGFCSPDSDDEILEHTSD; wildtype FANCM MM2 peptide)”, the “FANCM-BTR complex formation (TOP3A binding)” value is given as “dose-dependent inhibition of FANCM-BTR complex formation” with FANCM-BTR complex and “diminishes with increasing concentrations” in the series with FANCM-BTR complex (listed as MM2-WT).

As for “MM2 peptide containing the FF>AA mutant: MM2 peptide containing the FF>AA mutant (SEQ ID NO: 30) that does not bind to BTR (EDIFDCSRDLFSVTADLGACSPDSDDEILEHTSD; mutated FANCM peptide) [reference compound]”, in the series with FANCM-BTR complex, the “FANCM-BTR complex formation (TOP3A binding)” value is reported as “unable to inhibit complex formation”.

With “siFANCM1: Silencer Select siRNA FANCM1 (s33619) (SEQ ID NO: 12) (GCUCGUUCUUUGAUUCAGA; listed as RNA, chemistry not given here)”, the “metaphase-TIFs (meta-TIFs)” value in the series on U-2 OS ALT cells is “significant increase in metaphase-TIFs”.

On to `C/C(=C\C(=O)Nc1ccccc1C(=O)O)c1ccc2ccccc2c1` [BIBR 1532], for which the “accumulation in G2/M” value in the series on HeLa cells is “did not accumulated in G2/M”.
